For data set [1], the target named is adenosine A1 receptor fused to a hemi-Rluc8 (A1R-nRluc8) or to a hemi-Venus (A1R-nVenus) (human) (UniProt P30542).
Data set [2] concerns the molecule itself. The data set can be described thus: single-particle tracking and brightness analysis (TIRFM); living HEK-293T cells expressing A1R-GFP alone or A2AR-mCherry alone; number of receptors in a particle from the brightness distribution of the individual particles.

Chain of adenosine A1 receptor fused to a hemi-Rluc8 (A1R-nRluc8) or to a hemi-Venus (A1R-nVenus) (human) (P30542 whole entry, the tested form may be a part): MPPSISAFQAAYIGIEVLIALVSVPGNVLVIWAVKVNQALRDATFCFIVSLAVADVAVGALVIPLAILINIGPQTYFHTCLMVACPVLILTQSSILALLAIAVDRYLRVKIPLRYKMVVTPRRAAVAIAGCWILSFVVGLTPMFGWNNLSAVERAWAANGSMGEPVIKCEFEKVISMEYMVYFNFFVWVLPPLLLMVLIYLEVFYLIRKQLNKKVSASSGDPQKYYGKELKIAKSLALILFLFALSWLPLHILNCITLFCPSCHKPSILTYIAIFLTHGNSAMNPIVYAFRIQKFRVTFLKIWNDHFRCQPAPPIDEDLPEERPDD

As to “α-subunit of Gi fused to Rluc (Gi-Rluc) (from UniProt P63096 1-354) (natural protein)”, the decrease of BRETmax of the complementation BRET (A1R and A2AR fused to hemi-Rluc8 and hemi-Venus, the heterotetramer) after pertussis toxin (10 ng/ml, 16 h); endogenous Gi in data set [1] was determined as 35%.

B1: adenosine A2A receptor fused to mCherry (A2AR-mCherry) (receptor, human, UniProt P29274 1-412, looked up)
chain: MPIMGSSVYITVELAIAVLAILGNVLVCWAVWLNSNLQNVTNYFVVSLAAADIAVGVLAIPFAITISTGFCAACHGCLFIACFVLVLTQSSIFSLLAIAIDRYIAIRIPLRYNGLVTGTRAKGIIAICWVLSFAIGLTPMLGWNNCGQPKEGKNHSQGCGEGQVACLFEDVVPMNYMVYFNFFACVLVPLLLMLGVYLRIFLAARRQLKQMESQPLPGERARSTLQKEVHAAKSLAIIVGLFALCWLPLHIINCFTFFCPDCSHAPLWLMYLAIVLSHTNSVVNPFIYAYRIREFRQTFRKIIRSHVLRQQEPFKAAGTSARVLAAHGSDGEQVSLRLNGHPPGVWANGSAPHPERRPNGYALGLVSGGSAQESQGNTGLPDVELLSHELKGVCPEPPGLDDPLAQDGAGVS
notes: adenosine A2A receptor, human, UniProt P29274; The construct for single-particle tracking is not described in the main text; details may stand in Additional file 11 (Supplementary methods); also called A2A-mCherry; A2A-Cherry; source: HEK-293T, transiently transfected, on living cells; not shown: mCherry, C-terminal, kept
As for B1, the “stoichiometry N” value in data set [2] was 3.
